Target: T1, reconstituted SET1C (FLAG-Set1 and the seven other untagged subunits) (S. cerevisiae, UniProt P38827 1-1080; P39706 1-426; P36104 1-329; P38123 1-315; P43132 1-505; Q03323 …)
T1 construct: Set1, S. cerevisiae, full length (Set1 FL); Swd1, S. cerevisiae, untagged subunit; Swd2, S. cerevisiae, untagged subunit; Swd3, S. cerevisiae, untagged subunit; Bre2, S. cerevisiae, untagged subunit; Sdc1, S. cerevisiae, untagged subunit; Spp1, S. cerevisiae, untagged subunit; Shg1, S. cerevisiae, untagged subunit; The seven subunits are named in the introduction; also called full-length SET1C; …
Experiment: pull-down; GST-tagged Snf2 fragments (250 nM) on glutathione-Sepharose 4B with SET1C or C762SET1C (25 nM), BSA 0.2 mg/ml; 20 mM Tris-Cl pH 7.9, 150 mM NaCl, 0.2 mM EDTA, 20% glycerol, 0.1% NP-40; 4°C, 3 hr; immunoblotting
Details: both partners purified

B1: GST-Snf2C-AT-hook (domain or fragment, S. cerevisiae, UniProt P22082 1384-1547, looked up)
chain: ARKQRTKKEDKSEAIDGNGEIKGENIDADNDGPRINNISAEDRADTDLAMNDDDFLSKKRKAGRPRGRPKKVKLEGSENSEPPALESSPVTGDNSPSEDFMDIPKPRTAGKTSVKSARTSTRGRGRGRGRGRGRGRGRGRPPKARNGLDYVRTPAAATSPIDIR
notes: Snf2, S. cerevisiae, AT-hook region 1384-1547; also called Snf2-AT-hook; GST-Snf2-AT-hook; source: E. coli BL21, purified
  binding result: binds
